To fix the notation:
B1: recombinant human bone morphogenetic protein 13 (rhBMP13) (ligand, UniProt Q6KF10 336-455, looked up)
chain: TAFASRHGKRHGKKSRLRCSKKPLHVNFKELGWDDWIIAPLEYEAYHCEGVCDFPLRSHLEPTNHAIIQTLMNSMDPGSTPPSCCVPTKLTPISILYIDAGNNVVYKQYEDMVVESCGCR
notes: bone morphogenetic protein 13 (BMP13, also known as GDF6), human, mature form; homodimer by non-reducing SDS-PAGE
B3: recombinant human bone morphogenetic protein 2 (rhBMP2) (ligand, UniProt P12643 283-396, looked up)
chain: QAKHKQRKRLKSSCKRHPLYVDFSDVGWNDWIVAPPGYHAFYCHGECPFPLADHLNSTNHAIVQTLVNSVNSKIPKACCVPTELSAISMLYLDENEKVVLKNYQDMVVEGCGCR
notes: bone morphogenetic protein 2, human, mature domain; homodimer by non-reducing SDS-PAGE; source: CHO cells, purified (as in Wang et al. 1990)
B4: recombinant human bone morphogenetic protein 12 (rhBMP12) (ligand, UniProt Q7Z4P5 322-450, looked up)
chain: TALAGTRTAQGSGGGAGRGHGRRGRSRCSRKPLHVDFKELGWDDWIIAPLDYEAYHCEGLCDFPLRSHLEPTNHAIIQTLLNSMAPDAAPASCCVPARLSPISILYIDAANNVVYKQYEDMVVEACGCR
notes: bone morphogenetic protein 12 (BMP12, also known as GDF7), human, mature form; homodimer by non-reducing SDS-PAGE
B6: BMPRII (BMP receptor 2 extracellular domain linked to the human IgG Fc region) (Fc fusion, UniProt Q13873 27-150, looked up)
chain: SQNQERLCAFKDPYQQDLGIGESRISHENGTILCSKGSTCYGLWEKSKGDINLVKQGCWSHIGDPQECHYEECVVTTTPPSIQNGTYRFCCCSTDLCNVNFTENFPPPDTTPLSPPHSFNRDET
notes: BMP receptor type 2 (BMPR2, BMPRII), type II receptor, extracellular domain; printed as 'BMPRII' without '-Fc' in the list of Fc fusion proteins; also called BMPR2; BMPR-2; source: synthesized in-house

Series [1] concerns the molecule itself. As to the kind of experiment: non-reducing SDS-PAGE; purified proteins on 12% polyacrylamide gels under non-reducing against reducing (β-mercaptoethanol) conditions, Coomassie blue staining.
For series [2], the target named is B6. Briefly: BLI; receptor extracellular domain-Fc chimeras immobilised on anti-human IgG Fc biosensor tips (ForteBio Octet RED); sixfold serial dilutions of human BMPs in solution; association 10 min, dissociation 30 min; global fit to a 1:1 Langmuir model. As to conditions: both partners purified.
Series [3] deals with T1, ALK3-Fc (activin receptor-like kinase 3 extracellular domain linked to the human IgG Fc region) (UniProt P36894 24-152).
T1 construct: activin receptor-like kinase 3 (ALK3), type I BMP receptor, extracellular domain; source: bought: R&D Systems
Described as above. Particulars: both partners purified.

The target of series [4] is B3. The series is described as above. Particulars: both partners purified.
Series [5] addresses B4. The description is as above. As to conditions: both partners purified.
The target in series [6] is B1. Described as above. As to conditions: both partners purified.

T1 sequence (P36894 24-152): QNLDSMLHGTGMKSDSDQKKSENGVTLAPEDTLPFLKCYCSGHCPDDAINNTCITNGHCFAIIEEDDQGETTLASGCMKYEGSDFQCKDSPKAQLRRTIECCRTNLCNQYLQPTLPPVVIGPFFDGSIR

With B1, the stoichiometry N (usually a count of units in the complex or per binding partner) in series [1] turned out to be 2. In series [2], binding was characterised by a dissociation constant (Kd) of 28.1 nM; the koff (usually the first-order rate constant of dissociation) was found to be 0.16 s⁻¹; the association rate constant (kon) (in general, the rate constant with which the complex forms) is 5.7e+06 M⁻¹ s⁻¹. In series [3], the dissociation constant (Kd) (usually the equilibrium constant for the complex coming apart) amounted to 1.7 nM, the dissociation rate constant (koff) came to 0.0084 s⁻¹ and the association rate constant (kon) worked out at 4.97e+06 M⁻¹ s⁻¹.

B2: ALK6-Fc (activin receptor-like kinase 6 extracellular domain linked to the human IgG Fc region) (Fc fusion, UniProt O00238 14-126, looked up)
chain: KKEDGESTAPTPRPKVLRCKCHHHCPEDSVNNICSTDGYCFTMIEEDDSGLPVVTSGCLGLEGSDFQCRDTPIPHQRRSIECCTERNECNKDLHPTLPPLKNRDFVDGPIHHR
notes: activin receptor-like kinase 6 (ALK6), type I BMP receptor, extracellular domain; source: synthesized in-house
Consider B2, for which, in series [4], the equilibrium dissociation constant (Kd) is 1.6 nM, the koff turned out to be 0.0064 s⁻¹ and the kon was 4.28e+06 M⁻¹ s⁻¹. Further, in series [5], the Kd came to 0.6 nM, the off-rate constant (koff) was found to be 0.004 s⁻¹ and the kon came to 6.48e+06 M⁻¹ s⁻¹. Also, in series [6], the equilibrium dissociation constant (Kd) amounted to 0.5 nM, the koff stood at 0.0038 s⁻¹ and the association rate constant (kon) was 7.69e+06 M⁻¹ s⁻¹.
Regarding B3, the “stoichiometry N” value in series [1] was found to be 2.
Consider B4, for which the “stoichiometry N” value in series [1] worked out at 2. For the same molecule, in series [3], the affinity, expressed as Kd, was 3.4 nM; the koff was found to be 0.0164 s⁻¹; the kon was 5.07e+06 M⁻¹ s⁻¹.

B5: ACVR2B-Fc (activin receptor type-2B extracellular domain linked to the human IgG Fc region) (Fc fusion, UniProt Q13705 19-137, looked up)
chain: SGRGEAETRECIYYNANWELERTNQSGLERCEGEQDKRLHCYASWRNSSGTIELVKKGCWLDDFNCYDRQECVATEENPQVYFCCCEGNFCNERFTHLPEAGGPEVTYEPPPTAPTLLT
notes: activin receptor type-2B (ACVR2B), type II receptor, extracellular domain; source: synthesized in-house
Take B5: in series [5], the dissociation constant (Kd) came to 1 nM, the koff came to 0.0138 s⁻¹ and the on-rate (kon) is 1.29e+07 M⁻¹ s⁻¹. In series [6], the dissociation constant Kd came to 1.6 nM, the dissociation rate constant (koff) worked out at 0.0041 s⁻¹ and the association rate constant (kon) was 2.59e+06 M⁻¹ s⁻¹.
Consider B6, for which, in series [5], the Kd turned out to be 52.1 nM, the off-rate (koff) is 0.322 s⁻¹ and the kon stood at 9.26e+06 M⁻¹ s⁻¹.
